Test results: US9150634B2, “Epitopes of the human PDGF receptor able to bind human auto-antibodies, antibodies and uses thereof” (priority 2010, dated 2015)

Key:
[1] = tested on: normal human fibroblasts; experiment: type I collagen gene transcription in normal human fibroblasts (real-time PCR); format: cell-based; details: time course
Excerpt: (§1) FIG. 5 Characterization of recombinant human monoclonal auto-antibodies (rHumaab). IgG were affinity-purified from serum-free supernatants of CHO cells stably transfected with each of the four rHumaab constructs and used (10 micrograms/ml) in four independent assays. Each result is representative of three experiments performed under the same conditions. (a) Vk13B8, Vk16F4 and Vlambda16F4, but not Vlambda13B8 rHumaab, immunoprecipitated PDGFR alpha from normal human fibroblast extracts. A mouse monoclonal anti-PDGFR alpha antibody was used as positive control. Immunoprecipitated PDGFR alpha was visualized by immunoblotting with rabbit anti-PDGFR alpha antibody-HRP. (b-c) Vk16F4 and Vlambda16F4, but not Vk13B8 and Vlambda13B8 rHumaab, induced (b) ROS production and (c) increased ERK phosphorylation (p-ERK) in normal human fibroblasts after 15 minutes incubation. […] Intracellular ROS production was measured by DCFH-DA fluorescence. […] Type I A1 and A2 collagen gene expression was measured by quantitative real-time PCR in RNA extracted from fibroblasts at baseline and after stimulation with the indicated reagents. […] Mouse collagen gene expression was measured by quantitative real-time PCR in RNA extracted from F alpha and F−/− fibroblasts at baseline and after 1 hour stimulation with Vk16F4 rHumaab or human PDGF-BB. […]

[2] = target: T1, PDGFR alpha (Homo sapiens, UniProt P16234); experiment: optical biosensor binding to immobilized His-tagged PDGFR alpha; design: cDNA encoding aminoacids 1-834 of human PDGFR alpha; made in house
Experimental: A detailed characterization of rHumaab interaction with human PDGFR alpha was performed on an optical biosensor, using as a molecular bait a homemade truncated conformer of this receptor containing the complete extracellular and transmembrane regions joined to a poly-histidine tail (HIS tag) replacing part of the intracellular domain, and serving both as an anchor to the biosensor surface and as a spacer. Preservation of proper folding of the immobilized receptor into a naïve-like conformation was verified by monitoring the interaction with its natural binding partner (PDGF-BB) and with two mouse monoclonal antibodies specific for conformational PDGFR alpha epitopes (FIG. 6a). Using this approach, both kinetics and equilibrium parameters of the interaction between PDGF-BB, each rHumaab and PDGFR alpha were determined. […] Additionally, the analysis of association and dissociation rate constants for soluble ligands binding to PDGFR alpha, further defined the mechanistic properties of the macromolecular recognition process. […]
cDNA encoding aminoacids 1-834 of human PDGFR alpha was inserted in the pcDNA V5 HIS A vector (Invitrogen), in order to fuse the COOH— terminal of the protein with a 6× histidine tag. […] Presence of a single His-tagged PDGFR alpha product in eluted fractions was evaluated by immunoblotting with specific anti-PDGFR alpha (R&D Biosystems) and anti-histidine (Sigma-Aldrich) monoclonal antibodies. […]
[…] For binding assays, monophasic time courses were always reported upon addition of soluble rHumaab (the validity of the monophasic model in fitting each time course was assessed according to a standard F-test procedure, with the biphasic model being statistically nonsignificant at 95% confidence) (Bevington P R and Robinson D K. McGraw-Hill Book Company, New York. 1992).
Target sequence in this assay (P16234 24-834): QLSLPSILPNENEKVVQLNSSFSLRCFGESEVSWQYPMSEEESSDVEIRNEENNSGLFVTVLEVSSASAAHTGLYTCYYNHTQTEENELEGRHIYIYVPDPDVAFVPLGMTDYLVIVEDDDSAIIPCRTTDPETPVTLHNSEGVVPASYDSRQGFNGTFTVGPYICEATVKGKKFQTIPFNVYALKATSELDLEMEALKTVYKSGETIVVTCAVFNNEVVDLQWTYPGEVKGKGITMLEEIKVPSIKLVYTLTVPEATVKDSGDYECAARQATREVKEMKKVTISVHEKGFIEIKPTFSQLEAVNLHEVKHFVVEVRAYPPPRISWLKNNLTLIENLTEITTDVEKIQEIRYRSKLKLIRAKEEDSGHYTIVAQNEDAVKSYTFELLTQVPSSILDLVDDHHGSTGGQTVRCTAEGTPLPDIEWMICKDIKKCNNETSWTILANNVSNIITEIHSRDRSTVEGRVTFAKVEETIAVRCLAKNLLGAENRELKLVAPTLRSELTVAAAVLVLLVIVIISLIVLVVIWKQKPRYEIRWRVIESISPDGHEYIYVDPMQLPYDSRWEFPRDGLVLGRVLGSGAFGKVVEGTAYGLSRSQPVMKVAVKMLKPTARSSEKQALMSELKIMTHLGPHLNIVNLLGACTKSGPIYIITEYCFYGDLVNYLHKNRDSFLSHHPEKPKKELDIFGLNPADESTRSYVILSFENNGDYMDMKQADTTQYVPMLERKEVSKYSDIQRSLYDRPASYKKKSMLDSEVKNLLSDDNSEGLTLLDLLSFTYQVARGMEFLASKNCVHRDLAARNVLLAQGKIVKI

[3] = tested on: normal human fibroblasts; experiment: ERK phosphorylation (p-ERK immunoblot) in normal human fibroblasts; format: cell-based; details: 10 micrograms/ml, 15 minutes incubation
Excerpt: as §1

[4] = tested on: normal human fibroblasts; experiment: ROS production in normal human fibroblasts (DCFH-DA fluorescence); format: cell-based; details: 10 micrograms/ml, 15 minutes incubation
Excerpt: as §1

[5] = target: T1, PDGFR alpha; experiment: immunoprecipitation and immunoblotting of PDGFR alpha from human fibroblast extracts; format: binding; design: 100 micrograms of total protein from human fibroblast extract; endogenous in cells; host or cells: normal human (skin) fibroblasts, total cell extract; details: normal human fibroblast extracts; 10 micrograms/ml
Experimental: Immunoprecipitating antibodies were individually incubated for 4 hours at 4° C. with an aliquot of 100 micrograms of total protein from human fibroblast extract. The reaction mixture was adjusted to a final volume of 500 microliters with assay buffer (PBS, 1% Nonidet P-40, 0.5% sodium deoxycholate, 1 mM PMSF). Rabbit anti-PDGFR alpha antibody and rabbit IgG (Santa Cruz), IgG purified from EBV-transformed B cell culture supernatants and rHumaab were used at 10 micrograms/ml, total IgG purified from serum of SSc patients and healthy subjects at 200 micrograms/ml. Then, 20 microliters agarose-Protein A/G (Santa Cruz) were added to the antibody-cell extract mixture and incubated overnight under rotation at 4° C. After centrifugation and extensive washing, immunoprecipitates were suspended in 20 microliters of loading buffer (150 mM Tris-HCl, pH 6.8/6% SDS/0.3% bromophenol blue/30% glycerol) and heated to 100° C. for 10 minutes prior to immunoblotting with a commercial rabbit anti-PDGFR alpha antibody (Santa Cruz).
Target sequence in this assay (P16234 24-1089): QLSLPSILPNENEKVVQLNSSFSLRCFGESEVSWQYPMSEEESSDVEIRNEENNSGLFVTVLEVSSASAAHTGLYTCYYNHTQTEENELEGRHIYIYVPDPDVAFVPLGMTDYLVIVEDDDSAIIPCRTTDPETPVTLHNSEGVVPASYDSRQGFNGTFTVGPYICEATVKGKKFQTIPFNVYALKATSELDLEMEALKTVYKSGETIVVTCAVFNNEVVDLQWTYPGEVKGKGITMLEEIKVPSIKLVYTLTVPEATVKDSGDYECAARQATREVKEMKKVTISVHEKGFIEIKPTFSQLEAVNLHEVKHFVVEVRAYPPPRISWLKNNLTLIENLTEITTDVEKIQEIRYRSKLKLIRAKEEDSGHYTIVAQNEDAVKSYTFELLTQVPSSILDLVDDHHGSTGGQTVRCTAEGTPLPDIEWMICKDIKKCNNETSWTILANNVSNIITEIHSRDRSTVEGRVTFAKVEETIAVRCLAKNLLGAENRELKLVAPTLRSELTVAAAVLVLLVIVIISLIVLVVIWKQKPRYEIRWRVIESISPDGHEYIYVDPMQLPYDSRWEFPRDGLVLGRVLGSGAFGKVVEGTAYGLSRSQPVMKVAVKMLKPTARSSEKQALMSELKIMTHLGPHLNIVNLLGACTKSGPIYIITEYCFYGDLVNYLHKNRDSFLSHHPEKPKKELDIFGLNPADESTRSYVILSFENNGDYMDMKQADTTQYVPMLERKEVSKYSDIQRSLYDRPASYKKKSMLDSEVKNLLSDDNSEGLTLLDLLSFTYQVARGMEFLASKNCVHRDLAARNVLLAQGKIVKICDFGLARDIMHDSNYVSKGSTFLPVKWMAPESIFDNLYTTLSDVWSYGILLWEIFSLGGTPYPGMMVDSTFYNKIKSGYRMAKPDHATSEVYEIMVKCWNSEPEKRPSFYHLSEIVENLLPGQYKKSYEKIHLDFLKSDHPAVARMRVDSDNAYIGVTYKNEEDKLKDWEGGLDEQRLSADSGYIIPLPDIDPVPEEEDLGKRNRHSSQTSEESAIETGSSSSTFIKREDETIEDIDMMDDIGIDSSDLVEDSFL

[6] = target: T1, PDGFR alpha; experiment: competitive binding on optical biosensor; design: cDNA encoding aminoacids 1-834 of human PDGFR alpha; made in house; details: immobilized His-tagged PDGFR alpha saturated with molar excess of PDGF-BB
Experimental: To draw a map of the PDGFR alpha epitopes recognized by the rHumaab, competitive binding experiments were performed on the optical biosensor platform, where the surface of immobilized HIS-tagged PDGFR alpha was saturated with PDGF-BB prior to the addition of each rHumaab.
Binding assays were performed on a IAsys plus biosensor. The carboxylate surface was equilibrated with PBS buffer, and activated by addition of an equimolar mixture of N-hydroxysuccinimide and N-ethyl-N-(dimethylaminopropyl) carbodiimide hydrochloride following the standard procedure (Davies, R J et al. Academic Press: San Diego, 1994).
Next, His-tagged PDGFR alpha (200 micrograms/mL) was incubated over the surface for 20 min, and free carboxylic sites on the sensor surface were deactivated by injection of 1M ethanolamine, pH 8.5. Finally, the surface was re-equilibrated with PBS. rHumaab and PDGF-BB were added at different concentrations, and association kinetics were followed up to equilibrium, whereas dissociation steps and surface regeneration were performed by addition of fresh buffer, each time assessing the baseline recovery prior to any new addition of ligand. Kinetic and equilibrium parameters were derived from global fit of raw data both to mono- and bi-exponential models (Cuccioloni M et al. J Lipid Res 2011; 52 (5): 897-907).
Target sequence in this assay (P16234 24-834): as the sequence (P16234 24-834) above

kass (association rate constant) [2] [M⁻¹ s⁻¹] | kdiss (dissociation rate constant) [2] [s⁻¹] | immunoprecipitation of PDGFR alpha [5] | binding to PDGFR alpha pre-saturated with PDGF-BB [6] | Molecule | duration of collagen gene stimulation [1] | ERK phosphorylation (p-ERK) [3] | ROS production [4]
3e+07 | – | – | – | PDGF-BB: human PDGF-BB, natural binding partner (physiological ligand) of PDGFR alpha [reference compound] | up to 6 hours | – | –
– | 0.003 | specifically bound | – | Vlambda16F4: recombinant human monoclonal IgG1, VH PAM paired with Vlambda16F4 VL (SEQ ID No. 7) (antibody, V domains shown) VH: GLVKPLETLSLTCSVSGGSVSDGSYFWNWIRQPPGKGLEWIGYAYSRGTTNYSPSLKGRITISVDKSKNQISLKLTSVTPADTAVYYCARDSFEIWGQGTMVTV VL: QSALTQPASVSGSPGQSITISCTGTSSDVGGYNYVSWYQHHPGKAPKLMIYEVSHRPSGVSNRFSGSKSGNTASLTISGLQAEDEADYYCSSYTSSSHVVFGGGTKLTVL | – | increased | induced
– | 0.035 | specifically bound | bound | Vk13B8: recombinant human monoclonal IgG1, VH PAM (SEQ ID No. 3) paired with Vk13B8 VL (SEQ ID No. 4); non-agonistic anti-PDGFR alpha (antibody, listed as Homo sapiens, V domains shown) VH: GLVKPLETLSLTCSVSGGSVSDGSYFWNWIRQPPGKGLEWIGYAYSRGTTNYSPSLKGRITISVDKSKNQISLKLTSVTPADTAVYYCARDSFEIWGQGTMVTV VL: DIQMTQSPSSLSASVGDRVTITCRASQGISNYLAWFQQKPGKAPKSLIYAASSLQSGVPSKFSGSGSGTDFTLTISSLQPEDFATYYCQQYNSFPYTFGQGTKLEIK | – | – | –
